Test results published in US20190183976A1 (GPCR THERAPEUTICS, published 2019).

Key:
GCGR-VC = target: T1, GCGR-VC (human, UniProt P47871 26-477); assay: BiFC, U-2 OS cells co-expressing CXCR4-VN and GCGR-VC
T1 construct: whole, on cells; Adenovirus-expressed in U-2 OS cells; also called glucagon receptor-VC; not shown: VC155, C-terminal fragment of Venus
Method: (§1) Images of about 200 cells from each well were analyzed with Multi-target analysis software in IN Cell Developer ToolBox (GE Healthcare, Waukesha, Wis.). Cell boundary was marked based on Hoechst signal, and fluorescence intensity per cell was measured. Cells with fluorescence intensities higher than background level were considered as BiFC positive cells. […] Positive cells were determined, and positive cell count ratio (“BiFC score”) was calculated as (positive cells/total cells)×100 (see Table 4 below).

SSTR2-VC = target: T2, SSTR2-VC (human, UniProt P30874 1-369); assay: BiFC and co-internalization assay, U-2 OS cells
T2 construct: whole, on cells; Adenovirus-expressed in U-2 OS cells; not shown: VC155, C-terminal fragment of Venus

CNR2-VC = target: T3, CNR2-VC (human, UniProt P34972 1-360); assay: BiFC and co-internalization assay, U-2 OS cells
T3 construct: whole, on cells; Adenovirus-expressed in U-2 OS cells; also called Cannabinoid Receptor 2-VC; CB2; not shown: VC155, C-terminal fragment of Venus

APLNR-VC = target: T4, APLNR-VC (human, UniProt P35414 1-380); assay: BiFC and co-internalization assay, U-2 OS cells
T4 construct: whole, on cells; Adenovirus-expressed in U-2 OS cells; not shown: VC155, C-terminal fragment of Venus
T4 sequence (looked up): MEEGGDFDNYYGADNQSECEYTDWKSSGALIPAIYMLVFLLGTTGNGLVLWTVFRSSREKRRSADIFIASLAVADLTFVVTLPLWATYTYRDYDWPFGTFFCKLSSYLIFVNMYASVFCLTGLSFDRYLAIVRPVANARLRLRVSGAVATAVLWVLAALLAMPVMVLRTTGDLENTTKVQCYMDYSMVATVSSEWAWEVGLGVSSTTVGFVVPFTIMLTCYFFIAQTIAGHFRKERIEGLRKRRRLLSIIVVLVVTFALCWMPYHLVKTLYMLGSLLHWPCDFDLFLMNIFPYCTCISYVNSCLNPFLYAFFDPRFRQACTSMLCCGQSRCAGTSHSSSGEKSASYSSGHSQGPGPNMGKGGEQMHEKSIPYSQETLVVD

HRH1-VC = target: T5, HRH1-VC (human, UniProt P35367 1-487); assay: BiFC, U-2 OS cells
T5 construct: whole, on cells; Adenovirus-expressed in U-2 OS cells; not shown: VC155, C-terminal fragment of Venus
Method: as §1

CHRM1-VC = target: T6, CHRM1-VC (human, UniProt P11229 1-460); assay: BiFC, U-2 OS cells
T6 construct: whole, on cells; Adenovirus-expressed in U-2 OS cells; not shown: VC155, C-terminal fragment of Venus
T6 sequence (looked up): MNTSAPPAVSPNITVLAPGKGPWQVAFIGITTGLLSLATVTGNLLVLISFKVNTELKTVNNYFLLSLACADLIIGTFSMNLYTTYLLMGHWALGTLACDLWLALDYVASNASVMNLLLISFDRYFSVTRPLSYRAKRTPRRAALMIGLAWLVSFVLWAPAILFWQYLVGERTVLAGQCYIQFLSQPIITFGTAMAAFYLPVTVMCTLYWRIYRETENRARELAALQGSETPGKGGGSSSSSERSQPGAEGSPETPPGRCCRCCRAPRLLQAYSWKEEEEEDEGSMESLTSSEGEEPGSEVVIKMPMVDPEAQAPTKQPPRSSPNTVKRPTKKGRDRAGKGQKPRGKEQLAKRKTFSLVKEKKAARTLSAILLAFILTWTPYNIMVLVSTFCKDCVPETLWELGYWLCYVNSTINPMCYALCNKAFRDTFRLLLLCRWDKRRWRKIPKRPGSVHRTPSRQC
Method: as §1

PTGER2-VC = target: T7, PTGER2-VC (human, UniProt P43116 1-358); assay: BiFC, U-2 OS cells
T7 construct: whole, on cells; Adenovirus-expressed in U-2 OS cells; not shown: VC155, C-terminal fragment of Venus
Method: as §1

TACR3-VC = target: T8, TACR3-VC (human, UniProt P29371 1-465); assay: BiFC, U-2 OS cells
T8 construct: whole, on cells; Adenovirus-expressed in U-2 OS cells; not shown: VC155, C-terminal fragment of Venus
T8 sequence (looked up): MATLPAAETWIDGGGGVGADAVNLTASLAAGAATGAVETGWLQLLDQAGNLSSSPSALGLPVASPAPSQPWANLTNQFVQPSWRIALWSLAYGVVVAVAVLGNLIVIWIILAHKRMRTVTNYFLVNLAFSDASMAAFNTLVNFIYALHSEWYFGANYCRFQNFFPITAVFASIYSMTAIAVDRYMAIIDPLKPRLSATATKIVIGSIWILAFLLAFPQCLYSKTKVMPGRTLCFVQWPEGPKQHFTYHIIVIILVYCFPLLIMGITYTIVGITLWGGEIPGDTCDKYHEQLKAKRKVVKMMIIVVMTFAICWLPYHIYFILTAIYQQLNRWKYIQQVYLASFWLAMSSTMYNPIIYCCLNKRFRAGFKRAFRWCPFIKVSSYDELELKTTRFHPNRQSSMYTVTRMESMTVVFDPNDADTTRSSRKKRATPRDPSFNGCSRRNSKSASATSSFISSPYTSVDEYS
Method: as §1

MLNR-VC = target: T9, MLNR-VC (human, UniProt O43193 1-412); assay: BiFC, U-2 OS cells
T9 construct: whole, on cells; Adenovirus-expressed in U-2 OS cells; not shown: VC155, C-terminal fragment of Venus
Method: as §1

ADRB2-VC = target: T10, ADRB2-VC (human, UniProt P07550 1-413); assay: BiFC, U-2 OS cells
T10 construct: whole, on cells; Adenovirus-expressed in U-2 OS cells; not shown: VC155, C-terminal fragment of Venus
Method: as §1

EDNRB-VC = target: T11, EDNRB-VC (human, UniProt P24530 27-442); assay: BiFC, U-2 OS cells
T11 construct: whole, on cells; Adenovirus-expressed in U-2 OS cells; not shown: VC155, C-terminal fragment of Venus
T11 sequence (looked up): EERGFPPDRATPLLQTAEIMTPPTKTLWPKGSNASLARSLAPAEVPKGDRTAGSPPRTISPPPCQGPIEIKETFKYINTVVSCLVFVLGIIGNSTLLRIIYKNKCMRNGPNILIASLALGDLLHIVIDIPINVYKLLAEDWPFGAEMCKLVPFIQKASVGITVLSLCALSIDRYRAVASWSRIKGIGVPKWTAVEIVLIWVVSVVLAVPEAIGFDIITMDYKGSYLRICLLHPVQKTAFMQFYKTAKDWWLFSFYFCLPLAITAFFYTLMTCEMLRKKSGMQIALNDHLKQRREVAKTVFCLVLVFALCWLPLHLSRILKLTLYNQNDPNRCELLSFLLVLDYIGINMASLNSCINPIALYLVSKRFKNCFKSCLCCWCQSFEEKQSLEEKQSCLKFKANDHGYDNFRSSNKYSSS
Method: as §1

NTSR1-VC = target: T12, NTSR1-VC (human, UniProt P30989 1-418); assay: BiFC, U-2 OS cells
T12 construct: whole, on cells; Adenovirus-expressed in U-2 OS cells; not shown: VC155, C-terminal fragment of Venus
Method: as §1

T7 sequence (P43116 whole entry, the tested form may be a part): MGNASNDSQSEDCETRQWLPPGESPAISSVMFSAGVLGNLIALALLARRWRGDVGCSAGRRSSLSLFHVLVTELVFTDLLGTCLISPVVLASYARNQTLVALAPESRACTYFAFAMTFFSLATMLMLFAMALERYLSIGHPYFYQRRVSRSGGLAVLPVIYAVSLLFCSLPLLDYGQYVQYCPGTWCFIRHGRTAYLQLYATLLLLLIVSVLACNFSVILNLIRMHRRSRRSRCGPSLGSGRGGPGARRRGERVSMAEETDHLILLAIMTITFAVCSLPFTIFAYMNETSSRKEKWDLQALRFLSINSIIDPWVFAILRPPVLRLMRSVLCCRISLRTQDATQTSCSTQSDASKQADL
T3 sequence (P34972 whole entry, the tested form may be a part): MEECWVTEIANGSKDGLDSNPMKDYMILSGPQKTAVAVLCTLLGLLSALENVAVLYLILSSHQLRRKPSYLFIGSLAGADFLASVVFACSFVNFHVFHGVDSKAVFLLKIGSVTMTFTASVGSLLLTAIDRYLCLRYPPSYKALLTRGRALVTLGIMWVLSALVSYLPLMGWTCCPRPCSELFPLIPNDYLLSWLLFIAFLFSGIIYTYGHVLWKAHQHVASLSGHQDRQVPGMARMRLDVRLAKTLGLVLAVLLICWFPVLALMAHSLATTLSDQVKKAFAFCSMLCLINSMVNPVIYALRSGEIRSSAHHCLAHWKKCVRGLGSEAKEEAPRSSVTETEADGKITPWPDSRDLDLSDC
T5 sequence (P35367 whole entry, the tested form may be a part): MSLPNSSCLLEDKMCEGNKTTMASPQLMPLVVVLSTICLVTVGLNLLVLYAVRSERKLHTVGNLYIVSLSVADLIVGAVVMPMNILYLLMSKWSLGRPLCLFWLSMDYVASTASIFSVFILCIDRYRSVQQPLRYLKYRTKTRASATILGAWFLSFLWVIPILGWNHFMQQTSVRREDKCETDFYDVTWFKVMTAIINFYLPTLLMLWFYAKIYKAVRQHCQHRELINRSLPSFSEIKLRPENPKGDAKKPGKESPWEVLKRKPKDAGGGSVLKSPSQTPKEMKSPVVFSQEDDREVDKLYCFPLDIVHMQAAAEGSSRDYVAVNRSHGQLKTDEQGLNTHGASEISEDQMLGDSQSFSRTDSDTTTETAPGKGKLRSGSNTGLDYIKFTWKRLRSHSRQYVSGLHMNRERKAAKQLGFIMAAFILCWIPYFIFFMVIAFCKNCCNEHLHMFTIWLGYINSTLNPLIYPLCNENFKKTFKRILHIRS
T2 sequence (P30874 whole entry, the tested form may be a part): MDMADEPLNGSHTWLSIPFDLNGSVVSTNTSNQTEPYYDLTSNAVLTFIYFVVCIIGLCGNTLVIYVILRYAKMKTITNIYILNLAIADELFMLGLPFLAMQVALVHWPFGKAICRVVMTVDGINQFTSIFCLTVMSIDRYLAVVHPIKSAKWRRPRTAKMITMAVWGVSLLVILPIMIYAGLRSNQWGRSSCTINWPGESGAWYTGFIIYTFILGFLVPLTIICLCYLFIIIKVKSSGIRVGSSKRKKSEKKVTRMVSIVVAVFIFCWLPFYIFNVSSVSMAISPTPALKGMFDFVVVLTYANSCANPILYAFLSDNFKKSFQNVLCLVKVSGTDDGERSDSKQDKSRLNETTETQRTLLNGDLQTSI
T12 sequence (P30989 whole entry, the tested form may be a part): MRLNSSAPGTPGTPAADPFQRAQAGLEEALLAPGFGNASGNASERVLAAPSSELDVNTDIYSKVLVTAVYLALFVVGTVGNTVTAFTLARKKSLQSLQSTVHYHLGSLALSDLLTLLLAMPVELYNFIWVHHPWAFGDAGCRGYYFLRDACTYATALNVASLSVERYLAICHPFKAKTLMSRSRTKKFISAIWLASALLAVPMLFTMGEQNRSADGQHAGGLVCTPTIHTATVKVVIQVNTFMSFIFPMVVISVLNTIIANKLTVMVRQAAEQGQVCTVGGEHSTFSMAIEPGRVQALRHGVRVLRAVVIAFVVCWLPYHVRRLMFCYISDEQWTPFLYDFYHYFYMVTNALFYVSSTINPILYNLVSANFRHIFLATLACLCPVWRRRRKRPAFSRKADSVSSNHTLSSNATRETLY
T9 sequence (O43193 whole entry, the tested form may be a part): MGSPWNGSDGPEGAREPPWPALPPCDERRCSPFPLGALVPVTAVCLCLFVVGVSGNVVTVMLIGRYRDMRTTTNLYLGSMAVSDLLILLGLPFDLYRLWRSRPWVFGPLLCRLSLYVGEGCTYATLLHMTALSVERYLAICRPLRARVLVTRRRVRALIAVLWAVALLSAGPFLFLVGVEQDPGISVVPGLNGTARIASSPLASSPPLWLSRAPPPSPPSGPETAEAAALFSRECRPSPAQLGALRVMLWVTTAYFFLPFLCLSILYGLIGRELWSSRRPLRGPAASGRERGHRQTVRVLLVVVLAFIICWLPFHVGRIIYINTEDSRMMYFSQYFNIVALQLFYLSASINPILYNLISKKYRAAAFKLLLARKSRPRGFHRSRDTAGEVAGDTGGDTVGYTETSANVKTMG
T1 sequence (P47871 26-477): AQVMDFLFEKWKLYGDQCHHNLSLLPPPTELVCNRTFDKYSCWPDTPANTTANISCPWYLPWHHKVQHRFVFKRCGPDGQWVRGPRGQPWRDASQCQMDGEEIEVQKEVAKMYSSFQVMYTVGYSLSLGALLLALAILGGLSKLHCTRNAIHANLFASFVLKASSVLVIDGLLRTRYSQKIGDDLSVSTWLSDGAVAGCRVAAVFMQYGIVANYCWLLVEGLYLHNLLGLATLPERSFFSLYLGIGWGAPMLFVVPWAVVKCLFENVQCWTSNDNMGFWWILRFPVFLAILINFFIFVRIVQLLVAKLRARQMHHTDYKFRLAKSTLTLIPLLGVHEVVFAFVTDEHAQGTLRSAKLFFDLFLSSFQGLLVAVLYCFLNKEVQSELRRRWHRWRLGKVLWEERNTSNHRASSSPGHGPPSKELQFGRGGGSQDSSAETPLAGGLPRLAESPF

B1: CXCR4-VN (receptor, human, UniProt P61073 1-352, looked up)
chain: MEGISIYTSDNYTEEMGSGDYDSMKEPCFREENANFNKIFLPTIYSIIFLTGIVGNGLVILVMGYQKKLRSMTDKYRLHLSVADLLFVITLPFWAVDAVANWYFGNFLCKAVHVIYTVNLYSSVLILAFISLDRYLAIVHATNSQRPRKLLAEKVVYVGVWIPALLLTIPDFIFANVSEADDRYICDRFYPNDLWVVVFQFQHIMVGLILPGIVILSCYCIIISKLSHSKGHQKRKALKTTVILILAFFACWLPYYIGISIDSFILLEIIKQGCEFENTVHKWISITEALAFFHCCLNPILYAFLGAKFKTSAQHALTSVSRGSSLKILSKGKRGGHSSVSTESESSSFHSS
notes: whole, on cells; Adenovirus-expressed in U-2 OS cells; also called CXCR4 fused with N-terminal fragment of Venus; not shown: VNm10, N-terminal fragment of Venus (VN154 variant with L46F and L64F)
B1: no binding (GCGR-VC); binds (SSTR2-VC); binds (CNR2-VC). B1: binds (APLNR-VC); binds (HRH1-VC); binds (CHRM1-VC). B1: binds (PTGER2-VC); binds (TACR3-VC); binds (MLNR-VC). B1: binds (ADRB2-VC); binds (EDNRB-VC); binds (NTSR1-VC).
